Measurements from article PMC4980022.
“And” between values parts separate entries of the source, which are not always exact repeats. Identical values can stand only once.

Assays:
[1] = biological target: PorK lipoprotein (Porphyromonas gingivalis W50 (endogenous in W50ABK*WbaP)); assay: negative-stain electron microscopy and electron tomography; purified PorK/N complex (fraction 6 of the CsCl gradient) stained with uranyl acetate
[2] = biological target: PorK lipoprotein (Porphyromonas gingivalis W50 (endogenous in W50ABK*WbaP)); assay: densitometry of Coomassie stained gels; purified PorK/N complex on SDS-PAGE; PorK band against the combined PorN bands
[3] = biological target: PorK lipoprotein (Porphyromonas gingivalis W50 (endogenous in W50ABK*WbaP)); assay: high sensitivity amino acid analysis of the bands; purified PorK/N complex separated on SDS-PAGE, transferred to PVDF, PorK and PorN bands excised
[4] = biological target: PorN (Porphyromonas gingivalis W50 (endogenous in W50ABK*WbaP)); assay: negative-stain electron microscopy and electron tomography; purified PorK/N complex (fraction 6 of the CsCl gradient) stained with uranyl acetate

Substance	stoichiometry N [1] [subunits]	stoichiometry N (PorN per PorK) [2]	stoichiometry N (PorN per PorK) [3]	stoichiometry N [4] [subunits]
PorK lipoprotein (natural protein)	32 to 36			
PorN (natural protein)		1 and 1.2	1.2	32 to 36
